Measurements taken from the RNAGym collection of RNA variant scans (doi:10.7554/elife.90254).

B1: OR4K15 (parent)
chain: GUUAACGGUCAUAGGCCAUGGAAACUAGGAGCACCAUUUCGCUGCCAGUGAAGAAAUGAACAAAGAAAAUCUGGGCCAGGCAGGCAUCAAAAGAAAUAGUCUUGCGCUCAACCAGAAAGUCUGUAAUCAUUUUAAGGGUA

Variants of: B1
Assay: self-cleavage, relative activity (ratio to wild type); higher = more cleavage; in vitro, sequencing; the parent is a self-cleaving ribozyme

Variant	self-cleavage
A67G U122A	0.99
A67G U122C	0.99
A68G G83A	1.73
C71A A86G	0.28
U70C A82G	0.31
A67G C101A	0.19
U70C U139A	1.3
U70C U139C	0.7
A69U U122A	2.21
A68U U102C	2.04
A68U U102A	1.15
A67G C88U	1.97
A67G A126U	0.87
A67U A114G	0.66
A69G U108A	0.02
A69G U124C	1.11
U70C U102C	1.57
U70C C113U	0.02
U70C C113G	0.02
A68G A111U	0.21
U70C G74U	0.17
A67U U100G	1.34
U70C A96G	0.75
A68G A86C	0.72

Variant	self-cleavage
U70C A117G	1.21
A67G A86U	2.13
A69U A110G	0.09
U70A U120C	0.41
U70C A92G	0.82
A67G U124A	0.87
A67G U124G	1.24
A68G A91U	1.44
A68G A91C	1.44
U70C U103C	0.56
A69G U132C	1.56
A67C U131C	1.86
A67U A82G	0.9
A68U U122C	1.51
A67G A125G	0.57
A68C A110G	0.16
A68G G137A	1.06
A68G G137C	1.12
A67G C107A	0.04
A69G A118U	0.56
A68U U97G	1.94
A67U A116C	0.1
U70C A90G	0.83
U70C A118U	0.18

Variant	self-cleavage
A68G A129C	0.82
A68G A129G	1.05
A68G A129U	1.42
U70C A135G	1.14
U70C A116G	1.52
U70C A116U	0.34
A67G A134U	1.12
A69C G84U	0.82
A67G A82U	0.07
U70C C107U	0.02
A69U U132C	1.11
A67G G106A	0.02
C71A A95G	0.88
U70C U131A	0.45
A67G G75C	0.03
A67G G80A	0.04
U70C U87C	0.09
U70C U87A	0.61
U70C A134G	0.72
C71A	0.61
A69U U100C	2.44
U70C A89U	1.17
U70C A89C	0.49
U70C A89G	0.58

Variant	self-cleavage
A67G C77A	0.71
A68G U132A	1.27
A68G U132C	1.38
A68U A82G	0.75
A68U A82U	0.25
A67G A111G	0.02
U70C A91G	0.6
A68G U122C	1.18
U70C U122C	0.09
A69G C105G	0.02
A68C U127G	2.01
A67G U70C	1.05
A68U A140U	1.65
A69G U100G	1.94
U70C U130C	0.21
A69G A110G	0.14
A69G A110U	0.98
U70C A94G	0.77
A67G A78G	0.21
A69C A96C	1.03
A69G C81A	0.15
A68G A140G	1.91
A66U G80A	0.05
A66U G106A	0.02

Variant	self-cleavage
A66U C81U	0.05
U70C A114G	0.12
A68G A116G	0.8
A66U U139A	2.31
U70A C105U	0.16
A67G U97C	1.74
U70G U103C	1.08
U70C A78G	0.26
A68G A96C	1.42
A68G A96U	2.13
U70A A111G	0.04
A69U A140U	2.31
A67G U100C	2.32
U70C U120A	0.8
U70C U120C	0.25
U70C A129G	0.33
A66U U87C	0.42
U70G U127C	0.57
A68G G84A	2.58
A68U G119A	1.58
A68G G136C	1.93
A68G G136A	1.44
U70A A135G	0.74
A69U A86G	2.37

Variant	self-cleavage
U70C G123A	1.18
A67U A118G	1.4
A69C A90G	0.37
A69G C109A	0.37
U70A A125G	0.44
U70C G119A	1.49
U70A U127A	2.27
A68G G106U	0.02
A68U A92G	0.44
A67C A126G	2.11
A67G A117G	1.66
A67G A117U	0.32
A67G A117C	0.17
U70C A86G	0.86
A67G U132C	1.66
A69U A125G	0.75
A67G A140U	1.93
A67U A78C	0.23
A67U G75A	0.06
A68U A126G	0.6
A68U A86G	1.44
A68G C105U	0.14
A67G A69G	0.77
U70C A98G	0.41

Variant	self-cleavage
A69G A117G	1.44
A69G A117U	0.97
A69U U120A	1.84
A68G U97C	1.3
U70A U108C	0.01
A67G U131C	1.2
A69G U70C	0.25
C71A A117G	0.35
U70C C101G	0.11
U70C C101U	0.12
A67C U139C	2.18
A68G C128U	1.44
A67G A135G	2.06
A69G U122C	0.43
A69U A114G	2.05
A68G U72A	0.26
A68G U72C	0.29
A67G G99U	0.62
U70A A89G	1.13
U70G A82U	0.2
U70A A116U	0.79
A68U U132G	0.9
U70C A110U	0.92
A68U A117G	0.37

Variant	self-cleavage
A69U	1.81
A69G	1.16
A69C	1.05
A67G C113U	0.17
A69U U97A	2.51
U70C U132A	0.38
U70C U132C	0.96
A68U A96G	1.98
A69G U127C	0.82
A67G A89G	0.82
C71A U97C	0.18
A68G U102C	1.9
A66U U124C	1.25
A68G A135U	0.68
A66U G75C	0.18
U70A U102A	0.25
A67G U87A	1.28
A68U U100C	2.4
A69U U131C	1.33
U70C A111U	0.07
A69G U97C	0.98
A67G U130C	1.25
A69G A98U	1.35
A69G A98G	0.49

Variant	self-cleavage
U70C C121U	1.42
A67G A92G	1.31
A67G A92C	1.62
A67G A98G	0.36
A66U A125G	0.25
A67G U120A	1.38
A68G G138A	1.67
A68U U103A	0.3
A68G C77A	0.54
A69G A140G	1.93
U70C U127A	0.95
C71A A82G	0.26
A69G U103C	0.73
A68G A94G	1.34
A68G A94U	2.3
A69G C112U	0.01
A68G A98G	0.16
A68G A98U	0.78
A69G U72A	0.19
A69G U72C	0.3
A68G G75A	0.1
A66U A114U	0.04
A66U C85U	1.09
U70A C121U	2.35

Variant	self-cleavage
A68U U87C	1.78
A68U U87G	0.38
U70A U103C	0.68
A69G U102A	0.58
A69G U102C	2.06
A69G G104C	0.01
A69G A89U	1.53
A67U A135G	2.46
A68G A78U	0.13
A68G A78G	0.3
A69G A90U	1.9
A68G U70A	1.12
A66U A129U	0.61
A66U A129G	0.39
U70C G106A	0.01
A69G A95G	1.8
A68G U139C	0.95
A69U U127C	1.46
A68G C112U	0.02
A68G A134G	1.5
A67G A118U	0.81
A67G A118G	0.95
A66U U102C	1.8
U70A U139C	1.06

Variant	self-cleavage
A69G A96U	1.85
A68C A92G	1.88
A68G A69G	0.87
A68G A69U	1.38
A68G A69C	0.94
U70C A125U	1.06
U70C A125G	0.19
A67G U103G	0.05
A67G U103A	0.89
A69U U103A	1.87
A68G C88U	1.57
A68C U132C	1.61
A68G U103A	0.5
A68G U103C	0.96
A67U U122A	1.36
A68U A125C	1.36
A67U A69U	1.69
A68U G137A	1.39
U70A A92G	0.4
A67G U102A	1.3
A67G U102C	1.56
A69G A111G	0.03
A67G C128U	0.62
A69U A91G	1.79

Variant	self-cleavage
A67U	1.54
A67G	1.1
A67C	1.83
A68U A111G	0.02
A69G U130G	1.3
A69G U130C	0.5
A67G A129C	1.2
A67G A129G	0.85
A67G A129U	1.03
A68U U127C	0.82
A68U U127A	2.58
A69U U87A	1.79
A68U U108A	0.05
C71A U103C	0.11
A69G A114G	0.17
A67C A89U	2.57
A69U A78G	0.32
U70C C88U	1.54
A68G U87A	0.96
A68U A78G	0.27
A67U A90G	1.72
A69U A94U	2.23
A68G A89G	2.04
A67U U130A	1.56

Variant	self-cleavage
A67G A68G	1.5
A67G A68C	0.53
A68G A110G	0.25
A68G A110U	1.49
A68U A116G	1.07
A68G A118U	0.83
A68G A118C	0.67
A68G A118G	0.77
U70A U130C	0.61
A69G A129U	0.33
A68G A117G	2
A68G A117U	0.82
A66U U122C	1.09
A67G A94G	1.74
A67G A94U	1.92
A67G A95G	2.37
A66U U127C	0.58
A66U U130C	1.34
A67G A110G	0.11
A69G A78U	0.33
U70C A140U	0.96
U70C A140G	0.38
A69G G73U	0.33
A69G C121A	2.02

Variant	self-cleavage
A69C U120C	0.7
A67G G93U	1.17
A67G A91U	0.99
U70G U97C	1.01
A69C A126G	0.51
A69U A126U	0.72
U70A A91G	1.22
A68G A92C	1.7
A68G A92G	1.55
A69G A125G	0.39
A69U U130C	0.9
A69U A82U	0.04
A69U A82G	0.63
A67U U87C	1.29
A69G U139C	1.24
U70G U102C	0.64
A69G G79U	0.1
A67G G137A	1.67
A69G U131G	0.46
A68C U130A	0.98
A68U A89G	1.53
A69G C71A	0.43
